Assay [1] concerns the target T1, HER2 on HER2-positive AU565 cells (human, UniProt P04626 23-1255).
T1 construct: whole, on cells
Briefly: FACS, AU565 cells. On the procedure: Cells (1×10^5 cells/well) were incubated in polystyrene 96-well round-bottom plates (Greiner bio-one 650101) with serial dilutions of antibody preparations (range 2 to 10000 ng/mL in 4-fold dilutions for Jurkat cells and range 1 to 3000 ng/mL in 4-fold dilutions for on AU565 cells) in 100 μL PBS/0.1% BSA/0.02% azide at 4° C. for 30 min.
After washing twice in PBS/0.1% BSA/0.02% azide, cells were incubated in 100 μL with secondary antibody at 4° C. for 30 min. As a secondary antibody, R-Phycoerythrin (PE)-conjugated goat-anti-human IgG F(ab′)₂ (109-116-098, Jackson ImmunoResearch Laboratories, Inc., West Grove, Pa.) diluted 1/100 in PBS/0.1% BSA/0.02% azide, was used for all experiments. Next, cells were washed twice in PBS/0.1% BSA/0.02% azide, resuspended in 150 μL PBS/0.1% BSA/0.02% azide and analyzed on a FACS CantoII (BD Biosciences). Binding curves were analyzed using non-linear regression (sigmoidal dose-response with variable slope) using GraphPad Prism V5.04 software (GraphPad Software, San Diego, Calif., USA).

Assay [2] addresses T2, C1q (from 3% pooled human serum) (human, UniProt P02745 23-245; P02746 28-253; P02747 29-245).
T2 construct: Native C1q of pooled human serum, detected with rabbit anti-human C1q
Briefly: ELISA, antibody coated, 3% pooled human serum, anti-C1q detection. As for the experimental part:
Plates were washed and blocked with PBS supplemented with 0.025% Tween 20 and 0.1% gelatine. […] Detection was performed by addition of 1 mg/mL 2,2′-azino-bis(3-ethylbenzothiazoline-6-sulfonic acid) (ABTS; Roche, Mannheim, Germany) for about 30 min. The reaction was stopped by the addition of 100 μL 2% oxalic acid. Absorbance was measured at 405 nm in a microplate reader (Biotek, Winooski, Vt.). Log transformed data were analyzed by fitting sigmoidal dose-response curves with variable slope using GraphPad Prism software.
A general note: ELISA stands for enzyme-linked immunosorbent assay.

B1: bsIgG1-CD3×HER2 (IgG1-huCLB-T3/4×HER2-169), wild-type Fc (bispecific antibody)
heavy 1: not shown
VL 1: EIVLTQSPATLSLSPGERATLSCSASSSVTYVHWYQQKPGQAPRLLIYDTSKLASGIPARFSGSGSGTDFTLTISSLEPEDFAVYYCFQGSGYPLTFGSGTKLEMR
heavy 2: not shown
VL 2: EIVLTQSPATLSLSPGERATLSCRASQSVSSYLAWYQQKPGQAPRLLIYDASNRATGIPARFSGSGSGTDFTLTISSLEPEDFAVYYCQQRSNWPRTFGQGTKVEIK
notes: also called bispecific IgG1-CD3×HER2; (bs)IgG-CD3×HER2
As to B1, the binding result in assay [1] and in assay [2] was “binds” each time.

B2: IgG1-CD3-LFLEPS (IgG1-huCLB-T3/4-F405L with L234F/L235E/P331S) (antibody)
heavy: EVQLVESGGGLVKPGGSLRLSCAASGFTFSSYGMFWVRQAPGKGLEWVATISRYSRYIYYPDSVKGRFTISRDNAKNSLYLQMNSLRAEDTAVYYCARRPLYGSSPDYWGQGTLVTVSSASTKGPSVFPLAPSSKSTSGGTAALGCLVKDYFPEPVTVSWNSGALTSGVHTFPAVLQSSGLYSLSSVVTVPSSSLGTQTYICNVNHKPSNTKVDKRVEPKSCDKTHTCPPCPAPEFEGGPSVFLFPPKPKDTLMISRTPEVTCVVVDVSHEDPEVKFNWYVDGVEVHNAKTKPREEQYNSTYRVVSVLTVLHQDWLNGKEYKCKVSNKALPASIEKTISKAKGQPREPQVYTLPPSREEMTKNQVSLTCLVKGFYPSDIAVEWESNGQPENNYKTTPPVLDSDGSFLLYSKLTVDKSRWQQGNVFSCSVMHEALHNHYTQKSLSLSPGK
VL: EIVLTQSPATLSLSPGERATLSCSASSSVTYVHWYQQKPGQAPRLLIYDTSKLASGIPARFSGSGSGTDFTLTISSLEPEDFAVYYCFQGSGYPLTFGSGTKLEMR
notes: IgG1, F405L
As to B2, in assay [2], the binding result was “no binding (tested: coated at 7-30000 ng/mL)”.

B3: IgG1-CD3-… (IgG1-huCLB-T3/4-F405L with L234F/L235E/D265A/N297Q/P331S) (antibody)
heavy: EVQLVESGGGLVKPGGSLRLSCAASGFTFSSYGMFWVRQAPGKGLEWVATISRYSRYIYYPDSVKGRFTISRDNAKNSLYLQMNSLRAEDTAVYYCARRPLYGSSPDYWGQGTLVTVSSASTKGPSVFPLAPSSKSTSGGTAALGCLVKDYFPEPVTVSWNSGALTSGVHTFPAVLQSSGLYSLSSVVTVPSSSLGTQTYICNVNHKPSNTKVDKRVEPKSCDKTHTCPPCPAPEFEGGPSVFLFPPKPKDTLMISRTPEVTCVVVAVSHEDPEVKFNWYVDGVEVHNAKTKPREEQYQSTYRVVSVLTVLHQDWLNGKEYKCKVSNKALPASIEKTISKAKGQPREPQVYTLPPSREEMTKNQVSLTCLVKGFYPSDIAVEWESNGQPENNYKTTPPVLDSDGSFLLYSKLTVDKSRWQQGNVFSCSVMHEALHNHYTQKSLSLSPGK
VL: EIVLTQSPATLSLSPGERATLSCSASSSVTYVHWYQQKPGQAPRLLIYDTSKLASGIPARFSGSGSGTDFTLTISSLEPEDFAVYYCFQGSGYPLTFGSGTKLEMR
notes: IgG1, F405L
As for B3, the binding result in assay [2] is on record as “no binding (tested: coated at 7-30000 ng/mL)”.

B4: bsIgG1-CD3×HER2-DA (IgG1-huCLB-T3/4×HER2-169 with D265A) (bispecific antibody)
heavy 1: not shown
VL 1: EIVLTQSPATLSLSPGERATLSCSASSSVTYVHWYQQKPGQAPRLLIYDTSKLASGIPARFSGSGSGTDFTLTISSLEPEDFAVYYCFQGSGYPLTFGSGTKLEMR
heavy 2: not shown
VL 2: EIVLTQSPATLSLSPGERATLSCRASQSVSSYLAWYQQKPGQAPRLLIYDASNRATGIPARFSGSGSGTDFTLTISSLEPEDFAVYYCQQRSNWPRTFGQGTKVEIK
As for B4, the binding result in assay [1] is listed as “binds”; in assay [2] it was “no binding (tested: coated at 7-30000 ng/mL)”.

B5: bsIgG1-CD3×HER2-DANQ (IgG1-huCLB-T3/4×HER2-169 with D265A/N297Q) (bispecific antibody)
heavy 1: EVQLVESGGGLVKPGGSLRLSCAASGFTFSSYGMFWVRQAPGKGLEWVATISRYSRYIYYPDSVKGRFTISRDNAKNSLYLQMNSLRAEDTAVYYCARRPLYGSSPDYWGQGTLVTVSSASTKGPSVFPLAPSSKSTSGGTAALGCLVKDYFPEPVTVSWNSGALTSGVHTFPAVLQSSGLYSLSSVVTVPSSSLGTQTYICNVNHKPSNTKVDKRVEPKSCDKTHTCPPCPAPELLGGPSVFLFPPKPKDTLMISRTPEVTCVVVAVSHEDPEVKFNWYVDGVEVHNAKTKPREEQYQSTYRVVSVLTVLHQDWLNGKEYKCKVSNKALPAPIEKTISKAKGQPREPQVYTLPPSREEMTKNQVSLTCLVKGFYPSDIAVEWESNGQPENNYKTTPPVLDSDGSFLLYSKLTVDKSRWQQGNVFSCSVMHEALHNHYTQKSLSLSPGK
VL 1: EIVLTQSPATLSLSPGERATLSCSASSSVTYVHWYQQKPGQAPRLLIYDTSKLASGIPARFSGSGSGTDFTLTISSLEPEDFAVYYCFQGSGYPLTFGSGTKLEMR
heavy 2: QVQLVQSGAEVKKPGASVKVSCKASGYTFTNYGISWVRQAPGQGLEWMGWLSAYSGNTIYAQKLQGRVTMTTDTSTTTAYMELRSLRSDDTAVYYCARDRIVVRPDYFDYWGQGTLVTVSSASTKGPSVFPLAPSSKSTSGGTAALGCLVKDYFPEPVTVSWNSGALTSGVHTFPAVLQSSGLYSLSSVVTVPSSSLGTQTYICNVNHKPSNTKVDKRVEPKSCDKTHTCPPCPAPELLGGPSVFLFPPKPKDTLMISRTPEVTCVVVAVSHEDPEVKFNWYVDGVEVHNAKTKPREEQYQSTYRVVSVLTVLHQDWLNGKEYKCKVSNKALPAPIEKTISKAKGQPREPQVYTLPPSREEMTKNQVSLTCLVKGFYPSDIAVEWESNGQPENNYKTTPPVLDSDGSFFLYSRLTVDKSRWQQGNVFSCSVMHEALHNHYTQKSLSLSPGK
VL 2: EIVLTQSPATLSLSPGERATLSCRASQSVSSYLAWYQQKPGQAPRLLIYDASNRATGIPARFSGSGSGTDFTLTISSLEPEDFAVYYCQQRSNWPRTFGQGTKVEIK
Regarding B5, the binding result in assay [1] is “binds”; in assay [2], “no binding (tested: coated at 7-30000 ng/mL)”.

B6: IgG1-CD3-N297Q (IgG1-huCLB-T3/4-F405L with N297Q) (antibody)
heavy: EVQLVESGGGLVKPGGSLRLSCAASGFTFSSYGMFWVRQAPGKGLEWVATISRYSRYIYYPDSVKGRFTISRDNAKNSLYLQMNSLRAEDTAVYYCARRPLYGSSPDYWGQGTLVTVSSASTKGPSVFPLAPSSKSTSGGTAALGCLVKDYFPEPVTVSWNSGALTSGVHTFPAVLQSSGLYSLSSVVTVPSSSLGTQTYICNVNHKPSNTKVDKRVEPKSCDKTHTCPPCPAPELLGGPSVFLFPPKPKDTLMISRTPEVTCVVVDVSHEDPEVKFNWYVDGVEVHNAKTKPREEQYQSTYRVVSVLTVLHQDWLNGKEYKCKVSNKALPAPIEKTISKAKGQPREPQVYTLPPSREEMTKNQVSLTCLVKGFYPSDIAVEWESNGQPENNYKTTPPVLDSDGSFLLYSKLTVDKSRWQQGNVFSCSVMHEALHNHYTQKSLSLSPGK
VL: EIVLTQSPATLSLSPGERATLSCSASSSVTYVHWYQQKPGQAPRLLIYDTSKLASGIPARFSGSGSGTDFTLTISSLEPEDFAVYYCFQGSGYPLTFGSGTKLEMR
notes: IgG1, F405L; also called NQ
As to B6, the binding result in assay [2] is “no binding (tested: coated at 7-30000 ng/mL)”.

B7: bsIgG1-CD3×HER2-DAPS (IgG1-huCLB-T3/4×HER2-169 with D265A/P331S) (bispecific antibody)
heavy 1: EVQLVESGGGLVKPGGSLRLSCAASGFTFSSYGMFWVRQAPGKGLEWVATISRYSRYIYYPDSVKGRFTISRDNAKNSLYLQMNSLRAEDTAVYYCARRPLYGSSPDYWGQGTLVTVSSASTKGPSVFPLAPSSKSTSGGTAALGCLVKDYFPEPVTVSWNSGALTSGVHTFPAVLQSSGLYSLSSVVTVPSSSLGTQTYICNVNHKPSNTKVDKRVEPKSCDKTHTCPPCPAPELLGGPSVFLFPPKPKDTLMISRTPEVTCVVVAVSHEDPEVKFNWYVDGVEVHNAKTKPREEQYNSTYRVVSVLTVLHQDWLNGKEYKCKVSNKALPASIEKTISKAKGQPREPQVYTLPPSREEMTKNQVSLTCLVKGFYPSDIAVEWESNGQPENNYKTTPPVLDSDGSFLLYSKLTVDKSRWQQGNVFSCSVMHEALHNHYTQKSLSLSPGK
VL 1: EIVLTQSPATLSLSPGERATLSCSASSSVTYVHWYQQKPGQAPRLLIYDTSKLASGIPARFSGSGSGTDFTLTISSLEPEDFAVYYCFQGSGYPLTFGSGTKLEMR
heavy 2: QVQLVQSGAEVKKPGASVKVSCKASGYTFTNYGISWVRQAPGQGLEWMGWLSAYSGNTIYAQKLQGRVTMTTDTSTTTAYMELRSLRSDDTAVYYCARDRIVVRPDYFDYWGQGTLVTVSSASTKGPSVFPLAPSSKSTSGGTAALGCLVKDYFPEPVTVSWNSGALTSGVHTFPAVLQSSGLYSLSSVVTVPSSSLGTQTYICNVNHKPSNTKVDKRVEPKSCDKTHTCPPCPAPELLGGPSVFLFPPKPKDTLMISRTPEVTCVVVAVSHEDPEVKFNWYVDGVEVHNAKTKPREEQYNSTYRVVSVLTVLHQDWLNGKEYKCKVSNKALPASIEKTISKAKGQPREPQVYTLPPSREEMTKNQVSLTCLVKGFYPSDIAVEWESNGQPENNYKTTPPVLDSDGSFFLYSRLTVDKSRWQQGNVFSCSVMHEALHNHYTQKSLSLSPGK
VL 2: EIVLTQSPATLSLSPGERATLSCRASQSVSSYLAWYQQKPGQAPRLLIYDASNRATGIPARFSGSGSGTDFTLTISSLEPEDFAVYYCQQRSNWPRTFGQGTKVEIK
Take B7: the figures for the binding result in assay [1] and in assay [2] were “binds” and “no binding (tested: coated at 7-30000 ng/mL)”, respectively.

These data come from patent publication US20150337049A1 (Genmab, published 2015).
